To fix the notation:
B1: murine monoclonal antibody 3H6 (antibody, V domains shown)
VH: EVKLEESGGGLVQPGGSMKLSCVASGFTFSNYWMYWVRQSPEKGLEWVAEIRLKSDNYATHYAESVKGRFTISRDDSKSSVYLQMNSLRAEDTGIYYCTIFDYWGQGTTVTVSS
VL: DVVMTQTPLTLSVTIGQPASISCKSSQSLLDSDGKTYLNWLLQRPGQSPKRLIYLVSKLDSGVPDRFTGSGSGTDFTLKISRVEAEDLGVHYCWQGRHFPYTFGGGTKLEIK
notes: also called m3H6; mouse 3H6
B2: humanized 3H6 antibody version H2L1 (antibody, V domains shown)
VH: EVQLVESGGGLVQPGGSLKLSCAASGFTFSNYWMYWVRQAPGKGLEWVGEIRLKSDNYATHYAESVKGRFTISRDDSKNTAYLQMDSLKTEDTAVYYCTTFDYWGQGTLVTVSS
VL: DVVMTQSPLSLPVTLGQPASISCKSSQSLLDSDGKTYLNWLQQRPGQSPKRLIYLVSKLDSGVPDRFSGSGSGTDFTLKISRVEAEDVGVHYCWQGRHFPYTFGQGTKLEIK
notes: also called h3H6-H2L1
B3: humanized 3H6 antibody version H1L1 (antibody, V domains shown)
VH: B2 VH with A81V, T100I
VL: B2 VL
notes: it was captured on an anti-human chip; also called h3H6-H1L1
B4: humanized 3H6 antibody version H2L2 (antibody, V domains shown)
VH: B2 VH
VL: B2 VL with H91Y
notes: also called h3H6-H2L2
B5: humanized 3H6 antibody version H3L2 (antibody, V domains shown)
VH: B2 VH with T100I
VL: B2 VL with H91Y
notes: also called h3H6-H3L2
B6: chimeric 3H6 antibody (antibody, V domains shown)
VH: B1 VH
VL: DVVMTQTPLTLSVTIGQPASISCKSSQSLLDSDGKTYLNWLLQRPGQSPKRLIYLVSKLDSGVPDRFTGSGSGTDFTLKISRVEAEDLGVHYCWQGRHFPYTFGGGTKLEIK
notes: also called ch3H6

Positions count from the first letter of the chain named.

The target of one experiment is T1, hIAPP peptide LSSTNVGSNTY, amino acids 27-37 of IAPP (human).
T1 peptide: LSSTNVGSNTY
The experiment in a line: hybridoma epitope mapping against shorter peptides. Here is the method:
(§1) LA28-3H6 was originally a mouse hybridoma, producing an anti-hIAPP antibody of isotype Gamma 2a k, which resulted from a fusion of spleen cells from a mouse injected with hIAPP coupled to KLH via gluteraldehyde. The mouse was immunized with 25 μg of the conjugate in RIBI adjuvant on days 0, 7, 14, 21, 39, 46, 53, 60, 77, 84, and 91. […] On day 97 the mouse was injected with the IAPP/KLH conjugate both intraperitoneally and intravenously. Three days later the spleen was removed and a cell suspension was generated and frozen. Four months later the suspension was thawed and fused to SP2/0 cells. The fusion was screened against hIAPP, then epitope mapped against shorter peptides and found to react with […] (SEQ ID NO: 4), which corresponds to amino acids 27-37 of IAPP.
In the case of B1, the binding result is recorded as “binds”.

The next experiment has as its target T2, human islet-amyloid polypeptide (IAPP) (human).
T2 construct: also called hIAPP; human IAPP
T2 peptide: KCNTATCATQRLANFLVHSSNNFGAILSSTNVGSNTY
Description: hybridoma screen against hIAPP. Here is the method: as §1
Regarding B1, the binding result was “binds”.

A further experiment has as its target T3, rat IAPP (rat, UniProt P12969 38-74).
T3 construct: Used as the soluble analyte in the Biacore assay in place of human IAPP; also called rat islet amyloid polypeptide
T3 peptide (looked up): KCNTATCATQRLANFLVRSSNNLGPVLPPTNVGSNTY
Description: SPR (Biacore), antibody captured on anti-human CM5 chip, rat IAPP as analyte, global 1:1 fit. Here is the method: The affinity of various combinations of 3H6 humanized heavy chains and humanized light chain proteins for IAPP was analyzed on a Biacore instrument. Biacore analysis was performed by preparing an anti-human CM5 chip following the protocol provided in the kit. The 3H6 antibody was captured such that the maximum binding of rat IAPP would not exceed 20-30 RU. […] Data was blank subtracted to both an irrelevant sensor not containing 3H6 and 0 IAPP concentration to account for the dissociation of 3H6 from the anti-human capture. Data was then analyzed using a global 1:1 fit.
In general terms: SPR reads the build-up and loss of mass on a sensor chip optically.
As to B2, the Kd amounted to 34.5 nM, the koff was found to be 0.00294 s⁻¹ and the kon was found to be 85200 M⁻¹ s⁻¹.
For B3, in that order: 20.4 nM, 0.00231 s⁻¹ and 113000 M⁻¹ s⁻¹.
Consider B4, for which the Kd is 85.4 nM, the koff turned out to be 0.00646 s⁻¹ and the kon was determined as 75700 M⁻¹ s⁻¹.
For B5, in that order: 33.2 nM, 0.00625 s⁻¹ and 188000 M⁻¹ s⁻¹.
The matching figures for B1: 18.6 nM, 0.00152 s⁻¹ and 81800 M⁻¹ s⁻¹.
For B6, in that order: 13.7 nM, 0.00147 s⁻¹ and 107000 M⁻¹ s⁻¹.

The Kd is the equilibrium constant for the complex coming apart. One may read the koff as the rate constant with which the complex falls apart. For orientation: kon means the rate constant with which the complex forms.
